What all share (experiment): MST
The test system of one data set is GST-ZCCHC3;GST-cGAS.
A further data set deals with GST-ZCCHC3.
For data set [1], the system named is GST-cGAS.
The target of data set [2] is T1, GST-cGAS (UniProt Q8N884 1-522).
T1 construct: also called recombinant cGAS
Conditions: both partners purified.

T1 sequence (Q8N884 whole entry): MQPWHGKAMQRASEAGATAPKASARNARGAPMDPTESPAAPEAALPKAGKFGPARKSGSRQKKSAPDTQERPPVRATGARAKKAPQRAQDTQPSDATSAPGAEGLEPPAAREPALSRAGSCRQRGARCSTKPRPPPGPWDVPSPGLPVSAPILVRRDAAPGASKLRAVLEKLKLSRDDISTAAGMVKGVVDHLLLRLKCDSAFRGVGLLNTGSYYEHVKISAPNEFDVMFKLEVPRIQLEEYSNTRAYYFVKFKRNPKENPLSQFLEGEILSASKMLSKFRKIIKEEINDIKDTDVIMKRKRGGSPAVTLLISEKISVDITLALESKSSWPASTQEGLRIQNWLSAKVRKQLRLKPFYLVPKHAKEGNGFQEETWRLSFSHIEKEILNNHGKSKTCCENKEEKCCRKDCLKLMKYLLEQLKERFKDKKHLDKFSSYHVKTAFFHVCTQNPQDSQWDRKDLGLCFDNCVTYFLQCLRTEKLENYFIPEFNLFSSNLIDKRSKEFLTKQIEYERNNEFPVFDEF

In the case of HSV60, the Kd (commonly the constant that tells how readily two partners part at equilibrium) in the data set on GST-ZCCHC3;GST-cGAS turned out to be 7.62 nM; with GST-ZCCHC3 it was 866 nM; with GST-cGAS [1], 600 nM.

B1: GST-ZCCHC3 (natural protein, UniProt Q9NUD5 1-403, looked up)
chain: MATGGGAEEERKRGRPQLLPPARPAARGEEADGGREKMGWAQVVKNLAEKKGEFREPRPPRREEESGGGGGSAGLGGPAGLAAPDLGDFPPAGRGDPKGRRRDPAGEAVDPRKKKGAAEAGRRKKAEAAAAAMATPARPGEAEDAAERPLQDEPAAAAGPGKGRFLVRICFQGDEGACPTRDFVVGALILRSIGMDPSDIYAVIQIPGSREFDVSFRSAEKLALFLRVYEEKREQEDCWENFVVLGRSKSSLKTLFILFRNETVDVEDIVTWLKRHCDVLAVPVKVTDRFGIWTGEYKCEIELRQGEGGVRHLPGAFFLGAERGYSWYKGQPKTCFKCGSRTHMSGSCTQDRCFRCGEEGHLSPYCRKGIVCNLCGKRGHAFAQCPKAVHNSVAAQLTGVAGH
modifications: lysine residues labelled with a Blue-NHS labeling kit, dye:protein molar ratio of 3
notes: also called recombinant ZCCHC3
On to B1, for which the Kd with GST-cGAS [2] was 79.6 ± 12.5 nM.

Source of the values: publication PMC6105683 (Nature Communications, 2018).
